Measured values published in paper PMC7447767, “Molecular mechanism of mitochondrial phosphatidate transfer by Ups1” (Communications Biology, 2020).
One block for each binder: values may come before it.

Legend:
Conditions in all cases: both partners purified
[1] = target: T1, Ups1 (N-terminal 6x His-tagged full-length Ups1) (Saccharomyces cerevisiae, UniProt Q05776 1-175); assay: SEC; gel filtration of the Ups1/Mdm35 truncation mutants (Supplementary Fig. 8a)
T1 construct: Ups1, Saccharomyces cerevisiae, full length, amplified from genomic DNA; Always handled as the co-expressed complex with Mdm35 or an Mdm35 truncation; also called WT; wild-type Ups1/Mdm35 (Ups1 chain); source: E. coli Trans B, co-expressed with Mdm35 from pETDuet-1, purified (Ni-chelated Sepharose, Superdex 75)
T1 sequence (looked up): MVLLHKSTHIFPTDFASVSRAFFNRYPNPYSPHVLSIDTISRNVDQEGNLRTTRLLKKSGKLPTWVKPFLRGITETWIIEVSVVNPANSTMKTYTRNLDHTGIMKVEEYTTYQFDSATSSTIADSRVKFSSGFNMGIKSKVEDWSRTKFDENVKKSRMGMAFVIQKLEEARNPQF

[2] = target: T2, selenomethionine-substituted Ups1 (Saccharomyces cerevisiae, UniProt Q05776 1-175, selenomethionine-substituted); assay: crystal structure; selenomethionine-substituted Ups1/Mdm35, SAD, 2.9 Å; hanging drop, 16 °C, 8% tacsimate pH 5.0, 20% PEG3350, sodium thiocyanate
T2 construct: Ups1, Saccharomyces cerevisiae, full length, selenomethionine in place of methionine; also called SeMet-labeled Ups1; Ups1A; source: selenomethionine-derived Ups1/Mdm35 complex; expression of the SeMet form not described
T2 sequence (looked up): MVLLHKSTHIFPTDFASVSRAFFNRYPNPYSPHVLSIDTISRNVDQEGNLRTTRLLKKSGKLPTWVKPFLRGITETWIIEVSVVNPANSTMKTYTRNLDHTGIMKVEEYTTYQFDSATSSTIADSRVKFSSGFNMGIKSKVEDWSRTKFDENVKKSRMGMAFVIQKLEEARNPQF

Ups1-4E mutant = target: T3, Ups1-4E mutant (Saccharomyces cerevisiae, UniProt Q05776 1-175, K140E | R146E | K154E | K166E); assay: co-sedimentation; liposome co-sedimentation: 20 μM Ups1/Mdm35 or mutants with DOPC/DOPA = 80/20 liposomes (8 mM), 20 mM Tris-HCl pH 7.5, 150 mM NaCl, 1 mM EDTA, 25 °C, 30 min; 250,000 g; Mdm35 in the pellet taken as complexed with liposome-bound Ups1
T3 construct: Ups1, Saccharomyces cerevisiae, mutant of the full-length wild-type construct; limits not restated for the mutant; also called K140E/R146E/K154E/K166E; source: gene synthesized (Beijing SYKM); E. coli Trans B, purified with Mdm35
T3 sequence (looked up): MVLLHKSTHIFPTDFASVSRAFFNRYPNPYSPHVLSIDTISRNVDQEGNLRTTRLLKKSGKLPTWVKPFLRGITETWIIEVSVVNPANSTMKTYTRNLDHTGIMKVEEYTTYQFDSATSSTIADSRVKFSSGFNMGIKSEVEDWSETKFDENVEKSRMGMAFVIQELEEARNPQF

Ups1-3E mutant = target: T4, Ups1-3E mutant (Saccharomyces cerevisiae, UniProt Q05776 1-175, K140E | R146E | K154E); assay: as above
T4 construct: Ups1, Saccharomyces cerevisiae, mutant of the full-length wild-type construct; limits not restated for the mutant; also called K140E/R146E/K154E; source: gene synthesized (Beijing SYKM); E. coli Trans B, purified with Mdm35
T4 sequence (looked up): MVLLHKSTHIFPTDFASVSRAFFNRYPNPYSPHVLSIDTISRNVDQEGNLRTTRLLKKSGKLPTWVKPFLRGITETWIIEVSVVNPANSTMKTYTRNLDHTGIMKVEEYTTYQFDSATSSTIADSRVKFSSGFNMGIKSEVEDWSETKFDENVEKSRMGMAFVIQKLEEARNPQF

Ups1 F69L mutant = target: T5, Ups1 F69L mutant (Saccharomyces cerevisiae, UniProt Q05776 1-175, F69L); assay: as above
T5 construct: Ups1, Saccharomyces cerevisiae, mutant of the full-length wild-type construct; limits not restated for the mutant; source: gene synthesized (Beijing SYKM); E. coli Trans B, purified with Mdm35
T5 sequence (looked up): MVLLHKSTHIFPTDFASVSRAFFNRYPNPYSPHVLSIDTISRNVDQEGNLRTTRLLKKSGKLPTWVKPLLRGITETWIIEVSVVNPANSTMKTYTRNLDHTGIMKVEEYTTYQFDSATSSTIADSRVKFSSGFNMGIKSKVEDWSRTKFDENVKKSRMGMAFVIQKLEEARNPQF

Ups1-2E mutant = target: T6, Ups1-2E mutant (Saccharomyces cerevisiae, UniProt Q05776 1-175, K140E | R146E); assay: as above
T6 construct: Ups1, Saccharomyces cerevisiae, mutant of the full-length wild-type construct; limits not restated for the mutant; also called K140E/R146E; source: gene synthesized (Beijing SYKM); E. coli Trans B, purified with Mdm35
T6 sequence (looked up): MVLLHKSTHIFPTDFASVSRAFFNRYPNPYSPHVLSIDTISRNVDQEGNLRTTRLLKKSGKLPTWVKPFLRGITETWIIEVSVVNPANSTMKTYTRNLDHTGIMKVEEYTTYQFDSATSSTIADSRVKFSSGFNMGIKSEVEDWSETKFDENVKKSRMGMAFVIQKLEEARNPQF

B1: Mdm35ΔC14 (domain or fragment, Saccharomyces cerevisiae, UniProt O60200 1-72, looked up)
chain: MGNIMSASFAPECTDLKTKYDSCFNEWYSEKFLKGKSVENECSKQWYAYTTCVNAALVKQGIKPALDEAREE
notes: Mdm35, Saccharomyces cerevisiae, lacking the 14 C-terminal residues A73–K86; Limit worked out from the stated deletion A73–K86; also called Ups1/Mdm35ΔC14 (Mdm35 chain); source: gene synthesized (Beijing SYKM); E. coli Trans B, purified with Ups1
binding result [1]: binds

B2: Mdm35ΔC5 (domain or fragment, Saccharomyces cerevisiae, UniProt O60200 1-81, looked up)
chain: MGNIMSASFAPECTDLKTKYDSCFNEWYSEKFLKGKSVENECSKQWYAYTTCVNAALVKQGIKPALDEAREEAPFENGGKL
notes: Mdm35, Saccharomyces cerevisiae, lacking the five C-terminal residues K82–K86; Limit worked out from the stated deletion K82–K86; also called Ups1/Mdm35ΔC5 (Mdm35 chain); source: gene synthesized (Beijing SYKM); E. coli Trans B, purified with Ups1
binding result [1]: binds

Next, values leading:

binding result [2]: binds
B3: selenomethionine-substituted Mdm35 (natural protein, Saccharomyces cerevisiae, UniProt O60200 1-86, looked up)
chain: MGNIMSASFAPECTDLKTKYDSCFNEWYSEKFLKGKSVENECSKQWYAYTTCVNAALVKQGIKPALDEAREEAPFENGGKLKEVDK
modifications: selenomethionine-substituted
notes: Mdm35, Saccharomyces cerevisiae, full length, selenomethionine in place of methionine; also called SeMet-labeled Mdm35; Mdm35A; source: selenomethionine-derived Ups1/Mdm35 complex; expression of the SeMet form not described

binding result (Ups1-4E mutant): binds
binding result (Ups1-3E mutant): binds
binding result (Ups1 F69L mutant): binds
binding result (Ups1-2E mutant): binds
B4: Mdm35 (full-length) (natural protein, Saccharomyces cerevisiae, UniProt O60200 1-86, looked up)
chain: MGNIMSASFAPECTDLKTKYDSCFNEWYSEKFLKGKSVENECSKQWYAYTTCVNAALVKQGIKPALDEAREEAPFENGGKLKEVDK
notes: Mdm35, Saccharomyces cerevisiae, full length, amplified from genomic DNA; Two disulfide bridges (C13-C52 and C23-C42) between the αA and αB helices are seen in the structure; also called WT; wild-type Ups1/Mdm35 (Mdm35 chain); source: E. coli Trans B, co-expressed with His-tagged Ups1 from pETDuet-1, purified (Ni-chelated Sepharose, Superdex 75)
